# Laboratory results taken from patent publication US20260091080A1 (CELOSIA THERAPEUTICS, published 2026).
# B1: endogenous 14-3-3θ of murine N2a cells and mouse brain (other, UniProt P68254 1-245, looked up)
# chain: MEKTELIQKAKLAEQAERYDDMATCMKAVTEQGAELSNEERNLLSVAYKNVVGGRRSAWRVISSIEQKTDTSDKKLQLIKDYREKVESELRSICTTVLELLDKYLIANATNPESKVFYLKMKGDYFRYLAEVACGDDRKQTIENSQGAYQEAFDISKKEMQPTHPIRLGLALNFSVFYYEILNNPELACTLAKTAFDEAIAELDTLNEDSYKDSTLIMQLLRDNLTLWTSDSAGEECDAAEGAEN
# Columns and labels:
# [1] = target: YES-associated protein (YAP) (UniProt P46937 1-504); experiment: co-precipitation with expressed Fx
# Chain of YES-associated protein (YAP) (P46937 whole entry): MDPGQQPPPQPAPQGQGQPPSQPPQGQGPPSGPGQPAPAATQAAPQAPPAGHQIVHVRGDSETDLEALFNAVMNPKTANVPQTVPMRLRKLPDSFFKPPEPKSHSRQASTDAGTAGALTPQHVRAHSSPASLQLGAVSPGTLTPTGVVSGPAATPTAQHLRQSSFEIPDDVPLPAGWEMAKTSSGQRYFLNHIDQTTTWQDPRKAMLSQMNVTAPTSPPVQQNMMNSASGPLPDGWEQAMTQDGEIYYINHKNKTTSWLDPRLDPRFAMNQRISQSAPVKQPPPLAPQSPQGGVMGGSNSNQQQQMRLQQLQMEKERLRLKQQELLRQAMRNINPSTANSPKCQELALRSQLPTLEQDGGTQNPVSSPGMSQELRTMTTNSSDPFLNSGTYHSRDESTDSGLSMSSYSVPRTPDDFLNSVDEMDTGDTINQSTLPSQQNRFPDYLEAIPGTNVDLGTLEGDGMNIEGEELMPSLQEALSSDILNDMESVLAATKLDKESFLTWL
# FOXO1 = FOXO1 (UniProt Q12778 1-655, limits assumed); experiment: co-precipitation with expressed Fx
# Chain of FOXO1 (Q12778 whole entry): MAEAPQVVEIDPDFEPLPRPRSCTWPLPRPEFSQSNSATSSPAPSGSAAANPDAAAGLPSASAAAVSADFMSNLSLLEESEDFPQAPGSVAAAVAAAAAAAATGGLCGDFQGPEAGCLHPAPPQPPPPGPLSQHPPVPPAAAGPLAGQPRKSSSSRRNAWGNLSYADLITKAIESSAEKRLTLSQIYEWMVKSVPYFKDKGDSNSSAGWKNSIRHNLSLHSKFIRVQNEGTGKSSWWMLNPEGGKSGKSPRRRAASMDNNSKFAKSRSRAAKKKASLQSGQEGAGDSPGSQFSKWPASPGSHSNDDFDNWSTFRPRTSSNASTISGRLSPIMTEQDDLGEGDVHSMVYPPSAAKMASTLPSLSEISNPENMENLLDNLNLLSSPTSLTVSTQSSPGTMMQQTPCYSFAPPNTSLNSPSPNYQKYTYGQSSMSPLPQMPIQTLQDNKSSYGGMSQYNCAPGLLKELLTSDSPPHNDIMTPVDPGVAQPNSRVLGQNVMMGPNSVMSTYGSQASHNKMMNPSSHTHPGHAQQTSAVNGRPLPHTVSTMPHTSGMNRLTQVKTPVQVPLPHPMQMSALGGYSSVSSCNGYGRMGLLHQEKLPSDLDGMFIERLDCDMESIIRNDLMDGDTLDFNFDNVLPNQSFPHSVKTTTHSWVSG
# [2] = target: endogenous TDP-43 of murine N2a cells and mouse brain (mouse, UniProt Q921F2 1-414); experiment: co-immunoprecipitation from N2a cells and mouse brain
# Chain of endogenous TDP-43 of murine N2a cells and mouse brain (Q921F2 whole entry): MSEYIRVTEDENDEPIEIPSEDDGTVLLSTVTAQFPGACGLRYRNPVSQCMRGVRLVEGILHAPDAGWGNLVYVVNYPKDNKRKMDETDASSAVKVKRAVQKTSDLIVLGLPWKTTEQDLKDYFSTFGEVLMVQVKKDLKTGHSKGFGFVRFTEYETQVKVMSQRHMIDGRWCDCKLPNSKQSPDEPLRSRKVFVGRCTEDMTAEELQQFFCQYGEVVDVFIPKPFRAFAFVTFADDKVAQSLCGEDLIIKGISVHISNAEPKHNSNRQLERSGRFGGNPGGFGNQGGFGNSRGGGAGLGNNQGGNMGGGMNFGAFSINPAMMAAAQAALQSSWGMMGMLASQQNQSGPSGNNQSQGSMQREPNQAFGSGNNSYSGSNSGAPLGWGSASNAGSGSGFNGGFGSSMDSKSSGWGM
Binder,binding result [1],binding result (FOXO1),binding result [2]
GDDRKQTIDNSQGAYQEAFDISKKEMQPTH (not shown: V5 tag) [14-3-3θ-Fx-V5 (α-helix 6 (αF) of 14-3-3θ alone)],no binding,no binding,–
B1,–,–,binds
